Measured values reported in paper PMC9919357.

Target: Neuropeptide Y (TAMRA-NPY) (Sus scrofa), P01304

Kd: 32 nM
B1: Neuropeptide Y receptor type 2 (Y2R-A202C), P49146 (protein)
chain: MGPIGAEADENQTVEEMKVEQYGPQTTPRGELVPDPEPELIDSTKLIEVQVVLILAYASIILLGVIGNSLVIHVVIKFKSMRTVTNFFIANLAVADLLVNTLALPFTLTYTLMGEWKMGPVLCHLVPYAQGLAVQVSTITLTVIALDRHRAIVYHLESKISKRISFLIIGLAWGISALLASPLAIFREYSLIEIIPDFEIVCCTEKWPGEEKSIYGTVYSLSSLLILYVLPLGIISFSYTRIWSKLKNHVSPGAANDHYHQRRQKTTKMLVAVVVVFAVSWLPLHAFQLAVDIDSQVLDLKEYKLIFTVFHIIAMASTFANPLLYGWMNSNYRKAFLSAFRCEQRLDAIHSEVSVTFKAKKNLEVRKNSGPNDSFTEATNV
